Data as given in patent US20170106084A1.

T1: human tau(pS422) fragment SEQ ID NO: 03 (human)
T1 sequence (peptide, phosphoserine at 422 (tau numbering); biotinylated): SIDMVDXPQLATLAD


Biological target: T1, human tau(pS422) fragment SEQ ID NO: 03 (human)
Experiment: ELISA, coated antigen

EC50 [ng/mL] | Binder
6.3 | VH00/VL00 (antibody, V domains shown) VH: QSVEESGGRLVTPGTPLTLTCTVSGFSLSSNAINWVRQAPGKGLEWIGYIAVSGNTYYASWAKGRFTISKASTTVDLKMTSPTAEDTGTYFCGKSNIWGPGTLVTVSL VL: AQVLTQTTSPVSAAVGSTVTISCQSSQSVRTNKLAWFQQKPGQPPKRLIYSASTLDFGVPSRFSASGSGTQFTLTISDVQCDDAATYYCLGYFDCSIADCVAFGGGTEVVVK
5.6 | VH32/VL22 (antibody, V domains shown) VH: EVQVLESGGGLVQPGGSLRLSCAVSGFSLSSNAINWVRQAPGKGLEWVGYIAVSGNTYYASWAKGRFTISRDNSKNTVYLQMNSLRAEDTAVYYCGKSNIWGQGTLVTVSS VL: AQVMTQSPSSLSASVGDRVTITCRSSQSVRTNRLAWFQQKPGQPPKRLIYSASTLDYGVPSRFSGSGSGTEFTLTISSLQPEDFATYYCLGYFDSSADIVAFGGGTKVEIK
